# Test results from the supplement of paper PMC9233669.
# This sample holds only a part of the variants without activity.
# Columns and labels:
# biotinyl-Phe-oxazolone = test: self-aminoacylation, catalytic enhancement (BFO) (fold over background); higher = more active; k-Seq, kA / k0A0; sequences stand for … in GGGAAUGGAUCCACAUCUACGAAUUC…UUCACUGCAGACUUGACGAAGCUG
# Method in brief: (§1)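 Working in 50 μL HEPES/NaCl/KCl/MgCl2/CaCl2 buffer with 5% acetonitrile at pH 6.9–7.0, mutagenized RNA pools (0.43 μM; 21-nt variable region) were reacted with 2–1250 μM of each biotinyl-aminoacyl-oxazolone for 90 minutes at room temperature. Streptavidin capture followed, with quantification by triplicate qPCR and Illumina sequencing. Catalytic enhancement is reported as median kA over the uncatalyzed rate, the low-activity peak of a bimodal Gaussian fit to the data.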
# biotinyl-Ile-oxazolone = test: self-aminoacylation, catalytic enhancement (BIO) (fold over background); higher = more active; k-Seq, kA / k0A0; sequences stand for … in GGGAAUGGAUCCACAUCUACGAAUUC…UUCACUGCAGACUUGACGAAGCUG
# Method in brief: as §1
# biotinyl-Met-oxazolone = test: self-aminoacylation, catalytic enhancement (BMO) (fold over background); higher = more active; k-Seq, kA / k0A0; sequences stand for … in GGGAAUGGAUCCACAUCUACGAAUUC…UUCACUGCAGACUUGACGAAGCUG
# Method in brief: as §1
# biotinyl-Val-oxazolone = test: self-aminoacylation, catalytic enhancement (BVO) (fold over background); higher = more active; k-Seq, kA / k0A0; sequences stand for … in GGGAAUGGAUCCACAUCUACGAAUUC…UUCACUGCAGACUUGACGAAGCUG
# Method in brief: as §1
# biotinyl-Leu-oxazolone = test: self-aminoacylation, catalytic enhancement (BLO) (fold over background); higher = more active; k-Seq, kA / k0A0; sequences stand for … in GGGAAUGGAUCCACAUCUACGAAUUC…UUCACUGCAGACUUGACGAAGCUG
# Method in brief: as §1
# biotinyl-Trp-oxazolone = test: self-aminoacylation, catalytic enhancement (BWO) (fold over background); higher = more active; k-Seq, kA / k0A0; sequences stand for … in GGGAAUGGAUCCACAUCUACGAAUUC…UUCACUGCAGACUUGACGAAGCUG
# Method in brief: as §1
Sequence,self-aminoacylation (biotinyl-Phe-oxazolone),self-aminoacylation (biotinyl-Ile-oxazolone),self-aminoacylation (biotinyl-Met-oxazolone),self-aminoacylation (biotinyl-Val-oxazolone),self-aminoacylation (biotinyl-Leu-oxazolone),self-aminoacylation (biotinyl-Trp-oxazolone)
CCACACUUCGACCAAUCGGUC [Fam1B.1 aminoacylation ribozyme variant],1.42,1.31,1.74,1.85,1.22,1.41
AUUGUCCUGGUCAUCGAGUGA [Fam2.1 aminoacylation ribozyme variant],10,4.78,9.63,4.76,8.83,11.3
AUUUCCCUAGGUCAUCGGGUG [Fam2.2 aminoacylation ribozyme variant],70.4,6.29,10.3,6.97,13.5,9.73
AUUCACCUAGGUUAUCGGAUG [Fam2.2 aminoacylation ribozyme variant],0.355,0.661,0.712,0.986,0.673,0.723
UAGUAUGCUAAUAGUCGCAAG [Fam3.1 aminoacylation ribozyme variant],2,1.62,1.28,1.13,1.57,1.68
AUUACCAUUGUCAUCGAGUGA [Fam2.1 aminoacylation ribozyme variant],40.4,4.32,7.41,4.25,8.46,10.4
CUACUUCAAACACUCGGCCUG [Fam1A.1 aminoacylation ribozyme variant],1.38,1.96,1.59,2.38,2.05,2.01
AUUCACCUCGGUCAUCGGGGG [Fam2.2 aminoacylation ribozyme variant],12.8,2.66,3.13,2.67,2.98,2.72
AUUACACGGGUCAUCGAGUGA [Fam2.1 aminoacylation ribozyme variant],21.7,2.64,4.62,3.1,4.33,5.36
AAGUUCGCAAAUAGUCGCAAG [Fam3.1 aminoacylation ribozyme variant],3.4,1.84,2.13,1.44,2.86,1.42
AUUACCCCGGUCAUCGAGUGU [Fam2.1 aminoacylation ribozyme variant],9.98,1.56,2.58,1.87,2.45,3.57
GUUCACCUAGGUCAUCGGAUG [Fam2.2 aminoacylation ribozyme variant],0.879,0.815,0.701,0.979,0.728,0.5
AUUACCCUGGUCAUCGAGUAC [Fam2.1 aminoacylation ribozyme variant],17.2,2.32,6.05,3.03,5.94,4.57
CCACCCUUCAAGCAAUCAGUC [Fam1B.1 aminoacylation ribozyme variant],5.72,0.736,0.672,0.828,0.775,1.94
AUUCACCUAGGUCUUAGGGUG [Fam2.2 aminoacylation ribozyme variant],32.2,3.08,5.1,2.85,7.06,4.24
AUUACCCUGGUCUCCGAGUGA [Fam2.1 aminoacylation ribozyme variant],64.4,3.95,7.41,4.33,8.91,9.46
AUCCACCUAGGUAAUCGGGUG [Fam2.2 aminoacylation ribozyme variant],27.6,3,3.45,3.1,4.49,5.34
AUUCACCUAGGUCAUGGGGUC [Fam2.2 aminoacylation ribozyme variant],1.36,1.32,1.39,1.4,1.2,1
AUUCACCAAGGUCAUCGCGUG [Fam2.2 aminoacylation ribozyme variant],132,7.86,16,8.42,20.7,12.6
CUACUACAAACCAUCGGUCUG [Fam1A.1 aminoacylation ribozyme variant],0.739,0.837,0.845,0.822,0.702,0.765
AAGUUUGCCAAUAGUCGUAAG [Fam3.1 aminoacylation ribozyme variant],1.38,0.916,0.873,0.732,0.724,1.51
AUUACCCUGGUCAUCGGGUGC [Fam2.1 aminoacylation ribozyme variant],211,13.4,39.2,18.9,52.5,48.7
CUACUUCAAAGAAUCGAUCUG [Fam1A.1 aminoacylation ribozyme variant],0.544,0.679,0.454,0.595,0.615,0.506
CAACUUCAAACCAUCGGUCUG [Fam1A.1 aminoacylation ribozyme variant],1.41,1.06,0.913,1.1,1.07,1.14
AUUACCCUUAUCAUCGAGUGA [Fam2.1 aminoacylation ribozyme variant],60.8,5.68,14.1,6.51,13.2,16.7
CCACCCUUCAAGCACUCGGUC [Fam1B.1 aminoacylation ribozyme variant],0.826,1.54,1.14,1.68,1.15,1.46
